# Test: soluble fraction after stress (log2 fold change); higher = more stays soluble; pooled small domains, quantitative proteomics
# Conditions: stress: 75 degC
# 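Further: 20 min heating vs room temperature control held 20 min.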
row,Sequence,soluble fraction (log2)
1,HMTDYREILRLLSLGLSRTQIADSLNVSRTTVIHTLQRAVAQELDWQTAEGMSDRELVAKLFPV,-3.95
2,HMTEAVYMPALQNKTLEEAQRIVEQYDLELEYTYEANAQVEEGRILSQTPQMGVLVERGEKVQAVVSLG,1.01
3,HMTEDELLAQFEEILDGYVGKPGGLIPALQTAQKLFGYLPKRVLQLISMKLDIPYSEVTGVVSFYSFFTTV,0.28
4,HMTEEEEFEKGFEILVNLSHFNRFSVYKEDEYVIVRIADYDFNEYFKVKKSDVGRIAEFLNENIT,-2.61
5,HMTEELLNQRKETMLALLNDPTYVPMKLKELAMLLNLSRDQRDELREVMESLEQDGKVILTKRGKYKIP,-0.261
6,HMTEELQDMESRIIEAAKRVFVRKGYEATKMSDIALEVGLGRTALHYYFRTKEMLFDAIFGRLMGV,-0.702
7,HMTEEPISDGIKKLVEEWENIEGNLIMIFHGIQKHYGYVPRNVAKYVSEAIDVPLTRIYEILTFYNYFTM,0.261
8,HMTEEYAVLWRVARQTLKPEAFDVLWMKYREQLSIAEIAGIMNRSETSVKVMLHRARKNLGTALESS,-1.75
9,HMTEKIEWYKEVLELEPNSKVFFPLARMLAEEQRFDEAVAVLEHGLERHGEFLEARLFFIELLHET,-3.16
10,HMTEKQYIYSIGDRVNIGTDEFEIVNINEKEVSIADVTFPMLVKQISYEEFDRKVKENPFNDHLII,-0.112
11,HMTEKSTRSVPQEHEGKRLDVAAALLFPVYSRSELARRIDAGYLLLNGKGSTPKTKVHELDLIELLEV,-0.601
12,HMTELKKTAVDTWVKDLGTEQALAKLDTLAVVKLRRLAREYKAFGIAGRAISKADKGMLLAEFRAYYEN,-2.08
13,HMTETSKLTDAKQLLESILSSGEVSYKDIISAAEEYEIGKRTLMSAKALLSIESIKKTDGWYWTLPH,-0.368
14,HMTEVPSLSSLKIGDLIFYRNNKGAIAHSAIITSFYNGRPFISQHTFNALNITYVKDWASKMHFIKIW,0.0528
15,HMTEWDDATVKDAVEYFMSVNGRVPTVTDFKKENGLPSHPVIKQRYKINLHEWLNKNFPTYY,-1.3
16,HMTFEPVYDENSRILILGTFPSVKSREQQFYYGHPQNRFWKLLAALTGWKVPKTISEKKELLLQNGIA,-0.208
17,HMTFFDDLLYQAKAAVDNDPSIKPSLHNRAIIEILYQQGVFNMKNAVEHVAELLEISKNTVYLHLRSVKG,-1.06
18,HMTFGEMLQYTNRLKEILESNAPQSIKDRRLANLMTDLEQAYGIPILRDQEFEKENPFLMQLYRTIS,-2.4
19,HMTFKDIMENYTISRIENTINSAVVFLDEINAYITIDKTQLPSNLRYDTDSKIMASQIPDDAKIKYFMIYW,-2.12
20,HMTFPIDINRADTEQLTALPGIGEVLAKRIIAYREENGSFLSTDELKNVEGIGEKRLEAIVDLITIG,0.145
21,HMTFSDKIRELRKQKGVSQAVVAEYLGITKQAYSLYETGKREPDFDSLLKLAEYFGTDTDSLLY,-1.52
22,HMTGEEVLIMLGEKMKLIRNYNGYSQRQIAEILKIERSTYASYETGRNRPDIFAVQRFAKIFNVSVDYIL,-0.244
23,HMTGELEVTAAGLSPEKLLNLAAKNHITLSNVKRLSYTQLSFRIGPADYNRLKKLLPEGRYKLNVGSS,-2.28
24,HMTGESIPFSKFLSEVDSGRVINVEIQGNNISGLLSDGNKFKTYSPNYPNLVEILSEKEVSIVATPLE,0.0122
25,HMTGGLTQEQISQLRMLTPQQIEQLRQLQPQQVEMLRQLRPEQVMLLTQLEPQQIMAFMRLEPSVIMQL,-0.261
26,HMTGGMVTYIIEKGEGFFSLERKFGLSENELIKLNPSLKSGLKSEMQINIPKENYDRYVASS,-0.45

row,Sequence,soluble fraction (log2)
1,HMTGIESVKPSSDFTVEGNRIVAGDAEVEVYDLAGRKVNNNNLTTGVYIAKIAGSAESVKVFV,0.144
2,HMTGIQDVPALETRRVGNTFFFDRATDVQVYDLQGRLLQQARKVTSVSIGHLQQGVYVLTDGRASVKVQ,-1.51
3,HMTGIQLNDRERAILQHLSDGLTTKAIAERIFLREDTVKWYRKNLLARFEQPIVAALVKWAVLEGLV,0.0483
4,HMTGIVVVDVVGQVGRPGLVSLPAGSRVADAITAAGGATPEADVSLLNQARLVIDGEQIRVPRPGEVIAA,-0.0555
5,HMTGKVSHGERKSVLVSLAGSMRARGMSIDAVRAGLYADNEKRFDPPLDERDIEDVLNSAKKWGDP,-0.352
6,HMTGMDALIGRRVFVSEEILPGDAGGRVAVDGDSWRAISVGTAKPIPAGTEVRIHGYKSLILEVEPI,-0.788
7,HMTGQHFDLEDTDGNLVYEIDSTVPLKTFYIYDAMHTEIFRMTKELLHALPTYRFYLYGEPYGVLKKQ,-0.192
8,HMTGRVKWYDATKGFGFVTSDEGGDVFLPKGALPAGVADLKTGQRIEFGVVDSRKGAQALGVK,0.352
9,HMTGSAETRGITLTDEQVTVWAKDGSWANYVYRATDGNWYDGSGRLYYENGGGEWTQAATGEQGS,0.126
10,HMTGSALDATIEKLLDLGSKAGSVTEDEIQIVLKNVDVTDAQLSSIYQFLRDRGVEIVSATEDDD,0.371
11,HMTGVPYLVRVKITDLHIRSGPGTNYASKGFIAPGAYTIVEESTGQGAALWGKLKSGKGWIALGYTEK,-2.13
12,HMTHAISKTYAVTGEQLKNGFTLTHTFANGSTRRVDVYPGSRSGKVIAVRNTTDDTTEWIRIVEG,-0.2
13,HMTHSEYVGRHGIAATSLRPAGAATIDGSRVDVVTSGEYIEKGTPIEVMTVNGSTVRVKAVPQIP,0.203
14,HMTIDANAIEKMVLDLIGEHPNEWGRYRDGDKKVQGFFVGQIMKATSGQADGKIVNQILSQHAEA,-0.0337
15,HMTIELAEGQHFLQISKSGAPMGNVVRDLIIQTLKITNGNQIKAAKILGISRAKLRYRIEQLGINITGKNI,-2.81
16,HMTIERVKIKETPTGWLRVRETPDNNGSEIGRANVGEIYELLGSKGEWYHIVYKGKQGFISTKYAEKVL,-0.999
17,HMTIGEALLNLRKQLGLNQTEMAANVVSTSFYSKVERNIHDIGTKDLLQILNKHQINATYFFENLN,-1.82
18,HMTIHVMEIKSLLPIKILDESQHLVQSFSSKNPTSYNYRLIFSDKSKLENIKKTINENKDVESIEIRYA,-0.885
19,HMTILTSSQRKALISKMIRQGGVESQSHLVKLLAREGVKVTQATASRDLEDLGATRVRDANGEFQYVIP,-1.16
20,HMTINQIDPASGRKVGYWIITGEMKPKEGFSPDNKIEEGIYVNSRKSGKWIKYWPNGNVRSEIIYKNGR,-0.677
21,HMTITPEVIVNHFKNLDLFFTKNGNYYEFKKKGTENILFKYGIYKQKPNIFVKIQRYPISSLSDLERIPI,-1.53
22,HMTIYLSENIKRLRLEKELTQETLSEFLGVTSQSVSNWERGESYPDITMLPEIADFFKVSVDELLGVNRAE,-2.26
23,HMTIYPFNPNYLKDYQAYRVGLSLKEIDALLDFRSSGQWINSAEDFQRITGVSDSVLEQLIPYFKFS,-2.98
24,HMTKASYKITTPSGVNVREGAGKRYAVRKAYPKGKTVTVTQTKEVNGNLWGKTSDGWFAIKYQGAVYASA,-1.39
25,HMTKDEFLTTLRTLIQDMPPEDRRDVMNYYTEYFEDAGPEREQEVLRQLGSPEQVAREVLGG,-0.0428
26,HMTKDVIEIVDGNKFVFHKTIATDSVSSVINKYHISEADFRTWNELTGDMKVGEEYIVQLSLH,-0.87

row,Sequence,soluble fraction (log2)
1,HMTKKFQIQTLDKLNVRKVADWNASAVTTVKKGQILDVVAEVSPKNGSTKMYKLESGLYITASEKYVKKQG,-1.65
2,HMTKLPLLVELSRIIPTDTWVKKIKFSLGSVEFVGISKSASRLLPIVENSSYFHDTKFIGTIVT,-0.547
3,HMTKNIIVTTSVKTSDELVEVAKNHALNLELDFNYRNKKTIKELLSSFDGLVVIYKNKISYFEDNSELF,0.335
4,HMTKQDYLTALQQELNKNAVADAEDIVSEYEQHFQFKLADGFTEEEIAAKLGAPAQIALQFAG,0.826
5,HMTKQRSIILDLLKANQDRHLTAEEMLELLNQNHTPVSKATLYRYLDMLVSQNAVRKFIIDDQPSAGYQYL,-2
6,HMTKSTSMDLGGFMIVEGSETVRLGGQILQKDVDYTIDYFSGKINFISEEALNPGAEISVSYEENQ,-0.225
7,HMTKTEFLEALRRALNGNMAAASVEDNLKFYENYFYSEEAKGRSEAAVLSELGDPRILARTLIDAAER,0.154
8,HMTKTEFLNLLEQRLFVLNDNERADLLSEYKQHIEMKIQSGLSEEEAIADFGDPEELIKELLEAY,-0.956
9,HMTKTFDSPEDADNDVLAKTLFQIFGVQSVYLKENFVTITKSNSVGWHTLMEKTGHTLEEHLKF,0.0905
10,HMTKTKFLSKDMILSAMSRTKSNRAAARYLSVSFVHYKKYAREYKDETSGVSLWEKHKNQSGTGIPK,-2.11
11,HMTKTSQEDEDIMRHLDELHTRWPFLGQRKLIEELKDQGIQIGRKRLRRLMKVMGIEAIAPK,-2.12
12,HMTKVMVPNVVGMSRGEAEEALRGVKLQVDLKREVSDDPEVKPEEVLRQTPDAQTSVPQGSVVTLYVADKP,0.0285
13,HMTKYEKKIFEIVNASRDHLTAEQVLAALREEYPAVSQATVYNNLKKLTSDGLLRKLTLADSPDRYD,-0.202
14,HMTLAAATESREYLADLARRLDAADHGDKTRIKAEAAGLLGWSMATLHARLARDVGWTSGRK,-0.241
15,HMTLDEFTDLMNLFKTGHIEQKPVILYGYNYWTSLKSWFEFNNMKFPEMYIDGIINTVDEFKILYNKIF,-1.38
16,HMTLGPKQMGEAIIKNLKEKTGKSLEEWSQRILIHELTDKKEIIDFLKNDNGLGHFQALKIFEHLNGK,-0.281
17,HMTLGQHIQALRKEAGYSQEALGEALGVTRQSISKWESDQAIPEVDKLVTLSRLFQVPVGVLLQVEQP,-0.348
18,HMTLGSVRTVRQVLDDGRLLVADSGGNVTLVRRAGTLAKENVNTGDRVSVDSSVRFALTLIPV,-0.931
19,HMTLPEKSKRLFSQDDFWDQIFYRIGEGQSLREVSKYYKIPYTTIHDRIHSDEGIKLKYLEALTS,-0.882
20,HMTLPQEPTVLPRPLRVGDTVHIRTLDKDAEVLALPDARGMVAVRAGIINTKVKLTDLTLVEEK,-0.0272
21,HMTLRDRDQALEELWGQLADVPMDSETERLLEPFMGWGVGVSRDEIWHWFDRRHSKGIGHLLYS,-1.42
22,HMTLSENEKIIVDTIMKYQPLHIDVLNQQVKVDFYTLLGLLTKLEMEGIVLKNPGNIYKINTL,-0.378
23,HMTLTPEQQAARRSEIVDIALRLIAENGFQKTSMREIADLAKMGKSSLYDFFKTKDEIAVYAMEKK,-0.714
24,HMTMEFGEFLAKLRKERGYYQKEVAAYLNVTVATISNYEKNVHAPDLDTLVKLADFYDVSTDYLLQRT,-2.7
25,HMTMGAAEAQALKDEALELYRTGGTQEDVVRAIEMYEQAAEAGNAQAASDLAYLKANGVYETAMNN,0.263

# Reference: the domain aggregation screens of Martell et al. (2025)
